PMC13342644, “Structural basis for transport and inhibition of nucleotide sugar transport in pathogenic fungi” (Nature Communications, 2026)
“Also recorded” adds a separate entry of the source.

What was measured:
[1] = biological target: T1, C. albicans Vrg4 (CaVrg4) (Candida albicans, UniProt Q5A477); assay: Liposome 3H-GMP transport assay in the presence of nanobodies; assay type: biochemical
T1 sequence (Q5A477 34-371 limits assumed): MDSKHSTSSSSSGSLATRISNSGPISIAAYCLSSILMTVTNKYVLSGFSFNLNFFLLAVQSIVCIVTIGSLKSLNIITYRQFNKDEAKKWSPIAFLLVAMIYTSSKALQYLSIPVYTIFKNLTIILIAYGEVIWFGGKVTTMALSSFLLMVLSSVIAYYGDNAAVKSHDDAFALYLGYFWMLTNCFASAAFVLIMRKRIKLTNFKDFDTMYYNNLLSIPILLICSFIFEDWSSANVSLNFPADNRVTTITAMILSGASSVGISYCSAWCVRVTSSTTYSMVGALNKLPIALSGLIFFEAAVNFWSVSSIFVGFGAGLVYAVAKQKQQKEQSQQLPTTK
Method: (§1) CaVrg4 was reconstituted into liposomes using the dilution method into preformed lipid vesicles. Chloroform was removed from the lipids using a rotary evaporator to obtain a thin film. The lipids were washed twice in pentane and then resuspended at 10–20 mg ml^−1 in lipid buffer (20 mM HEPES, pH 7.5, 100 mM KCl). These lipid vesicles were frozen and thawed twice in liquid nitrogen, then stored at −80 °C until use. For reconstitution, the lipids were thawed and then extruded first through a 0.8-μm filter and then through a 0.4-μm filter. […] After this time, the protein–lipid mix was diluted rapidly into 65 mL of assay buffer (20 mM HEPES, pH 7.5, 50 mM KCl, 2 mM MgSO4) and the proteoliposomes were collected through centrifugation at >200,000 x g for 2 h. To remove trace detergent, the proteoliposomes were dialysed overnight against a large volume (3 L) of assay buffer. After dialysis, the proteoliposomes were collected and resuspended in assay buffer to a final protein concentration of 0.5 μg μl^−1, and then subjected to two rounds of freeze–thawing in liquid nitrogen before storage at −80 °C. The amount of protein reconstituted into the lipids was quantified by SDS–PAGE and densitometry. […] The final buffer was PBS. For all the assays, the lipid mix consisted of POPE:POPG:Ecoli Polar lipid Extract:EggPC in a 27:7:9:1 ratio.
(§2) All assays were performed at 30 °C.

S. cerevisiae Vrg4 = assay: Liposome 3H-GMP transport assay in the presence of nanobodies (specificity control); assay type: biochemical, Saccharomyces cerevisiae; conditions: Vrg4 from S. cerevisiae
C. auris Vrg4 = assay: as above; assay type: biochemical; conditions: Vrg4 from Candida auris
Method: as §1, §2

[2] = system: yeast strain NDY5 overexpressing C. albicans Vrg4; assay: Hygromycin B-based in vivo viability (growth) assay; assay type: cell-based, Saccharomyces cerevisiae; conditions: NDY5 + C. albicans Vrg4, in the presence of hygromycin B
Method: The yeast was grown in minimal media to select for the plasmids, and the expression of the nanobody was induced with galactose. After overnight galactose induction, the yeast culture was diluted, and growth was monitored over 30 h.
An overnight culture was grown in minus -Leu-Ura medium containing 2% glucose and then diluted 1:10 into medium containing 2% lactate. After 9 h of growth, 2% galactose was added, and the cultures were left overnight. […] The cultures were grown at 30 °C with shaking, and growth was monitored over the next 30 h by measuring the OD.

B1: NB3: inhibitory nanobody specific for C. albicans Vrg4, stabilises the Golgi-facing state (antibody, V domains shown)
VH: QVQLVESGGGLVQPGGSLRLSCAASGSISEINVMGWYRQAPGKQRELVARITTGGSTNYADSVKGRFTISRDNAKNTVYLQMNSLKPEDTAVYMCNAHRRVVMEWGPLGYDYWGQGTQVTVSS
- Effect on transport function (uptake of 3H GMP into liposomes), in words [1]: full inhibition
- Detectable inhibition, in words (S. cerevisiae Vrg4): neither NB3 nor NB4 showed any detectable inhibition
- Detectable inhibition, in words (C. auris Vrg4): neither NB3 nor NB4 showed any detectable inhibition
- Growth / sensitivity to hygromycin B, in words [2]: sensitivity of this strain to HyB manifests; also recorded: slow growth phenotype

B2: NB4: inhibitory nanobody specific for C. albicans Vrg4, stabilises the cytoplasmic-facing state (antibody, V domains shown)
VH: QVQLVESGGGLVQAGGSLRLSCAASGRTFRSYTLGWFRQAPGKEREFVAAIKWSTDTTYYADSVKGRFTISGDNAKNTVYLQMNSLKPEDTAVYFCAARSLSTVIAGPEIPWPYNSWGQGTQVTVSS
- Effect on transport function (uptake of 3H GMP into liposomes), in words [1]: full inhibition
- Detectable inhibition, in words (S. cerevisiae Vrg4): neither NB3 nor NB4 showed any detectable inhibition
- Detectable inhibition, in words (C. auris Vrg4): neither NB3 nor NB4 showed any detectable inhibition
- Growth / sensitivity to hygromycin B, in words [2]: sensitivity of this strain to HyB manifests; also recorded: slow growth phenotype
